The record followed here is patent publication US20070105096A1.

Assay [1] deals with orphan G-protein coupled receptor G10d (human) (UniProt O15218). The assay can be described thus: cell-based or functional assay.
In assay [2] the target is type I angiotensin II receptor (AT1), bovine (bovine) (UniProt P25104). The assay can be described thus: cell-based or functional assay.
type I angiotensin II receptor (AT1), bovine (bovine), sequence (P25104 whole entry): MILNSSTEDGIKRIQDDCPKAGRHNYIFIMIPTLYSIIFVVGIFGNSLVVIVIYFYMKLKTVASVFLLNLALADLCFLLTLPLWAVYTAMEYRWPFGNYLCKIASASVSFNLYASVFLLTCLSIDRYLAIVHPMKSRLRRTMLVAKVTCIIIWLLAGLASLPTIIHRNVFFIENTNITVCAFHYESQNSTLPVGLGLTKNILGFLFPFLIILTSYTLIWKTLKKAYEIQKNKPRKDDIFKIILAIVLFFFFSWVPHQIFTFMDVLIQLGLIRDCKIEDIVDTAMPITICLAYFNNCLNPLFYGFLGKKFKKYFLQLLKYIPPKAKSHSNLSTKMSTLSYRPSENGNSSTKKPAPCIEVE

orphan G-protein coupled receptor G10d (human), sequence (O15218 whole entry): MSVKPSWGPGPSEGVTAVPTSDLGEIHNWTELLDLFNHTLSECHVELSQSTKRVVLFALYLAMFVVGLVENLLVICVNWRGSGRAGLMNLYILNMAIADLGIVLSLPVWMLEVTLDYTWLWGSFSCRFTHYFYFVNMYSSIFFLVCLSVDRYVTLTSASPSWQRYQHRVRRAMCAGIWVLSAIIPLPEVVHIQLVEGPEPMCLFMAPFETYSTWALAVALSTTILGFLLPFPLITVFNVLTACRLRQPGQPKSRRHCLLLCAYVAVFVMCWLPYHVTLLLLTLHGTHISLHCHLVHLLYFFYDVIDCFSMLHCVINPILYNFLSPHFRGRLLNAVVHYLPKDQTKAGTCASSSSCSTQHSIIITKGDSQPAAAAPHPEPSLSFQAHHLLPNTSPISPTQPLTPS

With “adrenocorticotropic hormone (ACTH) (from UniProt P01189 138-176) (peptide)”, the induction ratio of the reporter (Renilla reniformis luciferase, CRE), host GBCRC6 with pAGal9-G10d, 100 nmol/L of ACTH in assay [1] was 11 fold.

With “human angiotensin II (manufactured by Bachem) (from UniProt P01019 25-476) (peptide)”, the firefly luciferase activity (CRE reporter), host GBCC13 with pAGal9-AT1, angiotensin II 100 nmol/L in assay [2] worked out at 85 fold.

Take “α-melanocyte-stimulating hormone (α-MSH) (from UniProt P01189 138-150) (peptide)”: in assay [1], the induction ratio of the reporter (Renilla reniformis luciferase, CRE), host GBCRC6 with pAGal9-G10d, 100 µmol/L of α-MSH as printed came out at 10 fold.
